B1: humanized SMO antibody No. 7: humanized SMO antibody, VH SEQ ID NO: 23 and VL SEQ ID NO: 28 (antibody, V domains shown)
VH: QVQLVQSGAEVKKPGASVKVSCKASGYTFTEYTMHWVRQAPGQRLEWMGGINPNTGDTRYNQKFKGRVTITVDKSASTAYMELSSLRSEDTAVYYCARDYYGSPFVYWGQGTLVTVSS
VL: DIVMTQSPLSLPVTPGEPASISCRSSQSIVHSSGYTFLDWYLQKPGQSPQLLIYKVSNRFSGVPDRFSGSGSGTDFTLKISRVEAEDVGVYYCFQGSHVPLTFGGGTKVEIK
modifications: huSM01-21-07 VH; huSM01-21-07 VL
B2: humanized SMO antibody No. 16: humanized SMO antibody, VH SEQ ID NO: 25 and VL SEQ ID NO: 29 (antibody, V domains shown)
VH: B1 VH with R44G, I70M, A76T, A79V
VL: DIQMTQSPSSLSASVGDRVTITCRSSQSIVHSSGYTFLDWYQQKPGKAPKLLIYKVSNRFSGVPSRFSGSGSGTDFTLTISSLQPEDFATYYCFQGSHVPLTFGQGTKVEIK
modifications: huSM01-21-16 VH; huSM01-21-15 VL
B3: humanized SMO antibody No. 17: humanized SMO antibody, VH SEQ ID NO: 26 and VL SEQ ID NO: 29 (antibody, V domains shown)
VH: B1 VH with Q1E, S17T, V20I, A24V, R38Q, Q43K, R44G, A76T, S77D
VL: B2 VL
modifications: huSM01-21-17 VH; huSM01-21-15 VL
B4: humanized SMO antibody No. 15: humanized SMO antibody, VH SEQ ID NO: 24 and VL SEQ ID NO: 29 (antibody, V domains shown)
VH: B1 VH
VL: B2 VL
modifications: huSM01-21-15 VH; huSM01-21-15 VL

Residue numbers refer to the chain shown, from its start. Entries after “also recorded” stand apart in the source; their conditions may differ.

For one test, the system named is SHH-induced GLI transcriptional activity. The experiment in a line: NIH3T3-GLI reporter assay, humanized SMO antibodies. Conditions: NIH3T3-GLI cells, Sonic hedgehog peptide 15 h, 10 and 20 μg/ml antibody 6 h. In kind it is cell-based. Here is the method:
GLI Repoter-NIH3T3 cell line was purchased from BPS Bioscience (CA, USA).
After NIH3T3-GLI cells having GLI transcriptional activity were plated in a 96-well plate at a density of 1×10^4 cells/cm^2, 2% BCS was treated with Sonic hedgehog peptide. Following 15 h, the cells were treated with different concentrations (10 and 20 μg/ml) of each of humanized antibody Nos. 5 (Production Example 6), 7 (Production Example 7), 15 (Production Example 8), 16 (Production Example 9), and 17 (Production Example 10) for 6 h. GLI1 Reporter activity (%) was measured through luminescence using a Reporter assay kit (Promega, WI, USA). The above procedure was repeated except that the SMO small-molecule inhibitor vismodegib or erismodegib was used as a positive control instead of the inventive SMO antibody.
For B1, the “transcriptional activity of GLI (GLI1 Reporter activity)” value is “significantly inhibited the transcriptional activity of GLI; also recorded: effectively inhibit the SHH-induced GLI transcriptional activity”.
On the same count and under the same terms, to B2 belongs “significantly inhibited the transcriptional activity of GLI; also recorded: effectively inhibit the SHH-induced GLI transcriptional activity”; to B3, “significantly inhibited the transcriptional activity of GLI; also recorded: effectively inhibit the SHH-induced GLI transcriptional activity”; to B4, “significantly inhibited the transcriptional activity of GLI; also recorded: effectively inhibit the SHH-induced GLI transcriptional activity”.

The next test deals with GLI1. The experiment in a line: Western blotting of HCT116 cell line treated with humanized SMO antibodies. Type of test: cell-based. Conditions: HCT116, 10 and 20 μg/ml, serum free media. Here is the method: (§1) HCT116 cell line was purchased from the Korean Cell Line Bank. 24 h after cells were plated in a […] at a density of 5×10^5 cells/cm^2, they were treated with different concentrations (10 and 20 μg/ml) of each of humanized SMO antibody Nos. 5, 7, 15, 16, and 17 in serum free media.
(§2) Cells were disrupted by a combination of mechanical homogenization and sonication in a lysis buffer (7 M urea, 2 M thiourea, 4% CHAPS, 40 mM Tris, 100 mM DTT) supplemented with protease, followed by centrifugation at 15,000 rpm and 4° C. for 20 min. Proteins in the supernatant were quantified with NanoDrop by bicinchoninic acid (BCA) assay.
(§3) 30 μg of the proteins isolated from the collected tissues were subjected to electrophoresis, transferred to a PVDF membrane, labeled with anti-GLI1 antibody (cell signaling, MA, USA), anti-SMO antibody (Santa Cruz, CA, USA), and anti β-actin antibody as primary antibodies and an HRP-conjugated anti-rabbit antibody as a secondary antibody, and detected by chemiluminescence staining. The expression levels of SMO protein were measured by the enhanced chemiluminescence (ECL) method.
Background: A western blot detects proteins with antibodies after separation by electrophoresis.
B1: the “expression level of GLI1 protein” value is recorded as “reduce the expression levels”.
The same measure, in the same setting: next, B2: “reduce the expression levels”; B3: “reduce the expression levels”; B4: “reduce the expression levels”.

Another test concerns SMO. The description is as above. To be noted: HCT116, 10 and 20 μg/ml, serum free media. Type of test: cell-based. Here is the method:
as §1, §2, §3
With B1, the “expression level of SMO protein” value is reported as “reduce the expression levels”.
Turning to B2, the “expression level of SMO protein” value was “reduce the expression levels”.
On to B3, for which the “expression level of SMO protein” value is “reduce the expression levels”.
For B4, the “expression level of SMO protein” value is “reduce the expression levels”.

The next test concerns HCT116 cell line. The experiment in a line: Transwell migration assay. Type of test: cell-based. Conditions: HCT116, 10 μg/ml, 48 h. Here is the method:
After HCT116 cell line was plated in a transwell, each of humanized SMO antibody Nos. 7, 15, 16, and 17 was added at a concentration of 10 μg/ml. Following 48 h, cell motility was measured using a Diff-Quik kit.
Regarding B1, the cell motility entry is listed as “reduction in cell motility”.
Take B2: the cell motility result was “reduction in cell motility; also recorded: highest activities to reduce cell mobility” and the “cell motility compared to treatment with vismodegib or erismodegib (positive control)” value was “significantly inhibited cell motility”.
Regarding B3, the cell motility entry is given as “reduction in cell motility; also recorded: highest activities to reduce cell mobility” and the “cell motility compared to treatment with vismodegib or erismodegib (positive control)” value is recorded as “significantly inhibited cell motility”.
On to B4, for which the cell motility entry was “reduction in cell motility”.

For the origin of these results see patent publication US12091453B2, “Epitope specific to SMO protein, antibody recognizing same, and composition comprising same” (HEDGEHOG, INC., priority 2018, dated 2024).
